Assay results from publication PMC3562449 (Nature Communications, 2013).
Values joined by “and” are separate entries in the source; they are usually repeats but may differ in a detail not shown here. Identical values can stand only once.

Tests used:
[1] = target: BASS-NoC single mutant with Cys at residue 671 (Drosophila) (UniProt P46863); test: SEC + other: sucrose density gradient centrifugation
[2] = target: BASS-NoC single mutant with Cys at residue 791 (Drosophila) (UniProt P46863); test: as above
[3] = target: BASS-NoC double mutant with Cys at residues 671 and 788 (Drosophila) (UniProt P46863); test: as above
[4] = target: BASS-NoC single mutant with Cys at residue 788 (Drosophila) (UniProt P46863); test: as above
[5] = target: BASS-NoC double mutant with Cys at residues 671 and 791 (Drosophila) (UniProt P46863); test: as above
native MS = target: the molecule itself; test: native MS
SEC = target: the molecule itself; test: SEC

“BASS-NoC single mutant with Cys at residue 671 (from UniProt P46863 631-920) (domain or fragment)” showed a stoichiometry N [1] of 4.

“BASS-NoC single mutant with Cys at residue 791 (from UniProt P46863 631-920) (domain or fragment)” showed a stoichiometry N [2] of 4.

For “BASS-NoC double mutant with Cys at residues 671 and 788 (from UniProt P46863 631-920) (domain or fragment)”, the stoichiometry N [3] was 4.

In the case of “BASS-NoC single mutant with Cys at residue 788 (from UniProt P46863 631-920) (domain or fragment)”, the stoichiometry N [4] is reported as 4.

In the case of “BASS-NoC double mutant with Cys at residues 671 and 791 (from UniProt P46863 631-920) (domain or fragment)”, the stoichiometry N [5] is reported as 4.

B1: BASS (bipolar assembly) domain of kinesin-5, residues 631–920 (domain or fragment, Drosophila, UniProt P46863 631-920, looked up)
chain: EQMQQQQLLMSKEIQTNLQVIEENNQRHKAMLDSMQEKFATIIDSSLQSVEEHAKQMHKKLEQLGAMSLPDAEELQNLQEELANERALAQQEDALLESMMMQMEQIKNLRSKNSISMSVHLNKMEESRLTRNHRIDDIKSGIQDYQKLGIEASQSAQAELTSQMEAGMLCLDQGVANCSMLQVHMKNLNQKYEKETNENVGSVRVHHNQVEIICQESKQQLEAVQEKTEVNLEQMVDARQQLITEDRQRFIGHATVATDLVQESNRQFSEHAEHQRQQLQICEQELVRFQ
For B1, the “stoichiometry N” value (native MS) was 2 and 4.

B2: BASS-core (BASS 631–835) (domain or fragment, Drosophila, UniProt P46863 631-835, looked up)
chain: EQMQQQQLLMSKEIQTNLQVIEENNQRHKAMLDSMQEKFATIIDSSLQSVEEHAKQMHKKLEQLGAMSLPDAEELQNLQEELANERALAQQEDALLESMMMQMEQIKNLRSKNSISMSVHLNKMEESRLTRNHRIDDIKSGIQDYQKLGIEASQSAQAELTSQMEAGMLCLDQGVANCSMLQVHMKNLNQKYEKETNENVGSVRV
For B2, the “stoichiometry N” value (SEC) was 4.

B3: BASS 631–790 (domain or fragment, Drosophila, UniProt P46863 631-790, looked up)
chain: EQMQQQQLLMSKEIQTNLQVIEENNQRHKAMLDSMQEKFATIIDSSLQSVEEHAKQMHKKLEQLGAMSLPDAEELQNLQEELANERALAQQEDALLESMMMQMEQIKNLRSKNSISMSVHLNKMEESRLTRNHRIDDIKSGIQDYQKLGIEASQSAQAEL
With B3 the “stoichiometry N” value (SEC) was 4 and 2.
